In the RNAGym collection of RNA variant scans (doi:10.1073/pnas.2313332121):
This sample holds only a part of the variants without activity.

B1: TPR 5TU (parent)
chain: GGAUCUUCUCGAUCUAACAAAAAAGACAAAUCUGCCACAAAGCUUGAGAGCAUCUUCGGAUGCAGAGGCGGCAGCCUUCGGUGGCGCGAUAGCGCCAACGUUCUCAACUAUGACACGCAAAACGCGUGCUCCGUUGAAUGGAGUUUAUCAUG

Variants of: B1
Experiment: polymerase ribozyme fitness, log enrichment relative to wild type (log ratio); higher = more active; in vitro selection for triplet polymerase activity
How it was run: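 One round of in vitro selection, in triplicate, was applied to PCR-built, transcribed mutant libraries of each subunit of a heterodimeric triplet polymerase ribozyme. The steps were annealing with a biotinylated primer, partner subunit and triplets, incubation frozen at −7 °C, gel excision of extended constructs, streptavidin-bead capture and RT-PCR. Fitness is the logarithm, base 2, of genotype enrichment over wild-type enrichment from inverse-variance-weighted replicate averages of Illumina-sequenced inputs and outputs, keeping genotypes with ≥10 input reads and ≥1 read per output.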

Variant	polymerase ribozyme fitness (log ratio)
GGAUCUUCUCGAUCUAACAAAAAAGACAAAUCUGCCACAAAGCUUGAGAGCAUCUACGGAUGCAGAGGCGGCACCCUUCGGUGGCGCGAUAGCGCCAACGUUCUCAACUAUGACACGCAAAACGCGUGCUCCGUUGAAUGGAGUUUAUCAUG [U56A G74C]	-4.17
GGAUCUUCUCGAUCUAACAAAAAAGACAAAUCUGCCACAAAGCUUGAGAGCAUCUACGGAUGCAGAGGCGUCAGCCUGCGGUGGUGCGAUAGCGCCAACGUUCUCAACUAUGACACGCAAAACGCGUGCUCCGUUGAAUGGAUUUUAUCAUG [U56A G71U U78G C85U G143U]	≤ -4.2
GGAUCUUCUCGAUCUAACAAAAAAGACAAAUCUGCCACAAAGCUUGAGAGCAUCUACGGAUGCAGAGGCGGCAGCCUUCUGUGGCGCGAUAGCGCCAACGUUCUCAACUAUGACACGCAAAACGCGUGCUCCGUUGAAUGGAGUUUAUCAUG [U56A G80U]	-0.898
GGAUCUUCUCGAUCUAACAAAAAAGACAAAUCUGCCACAAAGCUUGAGAGCAUCUACGGAUGCAGAGGCGUCAGCCUUCGGUGGCGCGAUAGCGCCAACGUUCUCAACUAUGACACGCAAAACGGGUGCUCCGUUGAAUGGAGUUUAUCAUG [U56A G71U C125G]	-3.78
GGAUCUUCUCGAUCUAACAAAAAAGACAAAUCUGCCACAAAGCUUGAGAGCAUCUACGGAUGCAGAGGCGGCAGCCUUCGGUGACGCGAUAGCGCCAACGUUCUCAACUAUGACACGCAAAACGCGUGCUCCGUUGAAUGGAGUUUAUCAUG [U56A G84A]	-1.06
GGAUCUUCUCGAUCUAACAAAAAAGACAAAUCUGCCACAAAGCUUGAGAGCAUCUACGGAUGCAGAGGCGGCAGCCUUCCGUGGCGCGAUAACGCCAACGUUCUCAACUAUGACACGCAAAACGCGUGCUCCGUUGAAUGGAGUUUAUCAUG [U56A G80C G92A]	≤ -4.2
GGAUCUUCUCGAUCUAACAAAAAAGACAAAUCUGCCACAAAGCUUGAGAGCAUCUACGGAUGCAGAGGCGGCAGCCUUCGGUGGCGCCAUAGCGCCAACGUUCUCAACUAUGACACGCAAAACGCGUGCUCCGUUGAAUGGAGUUUAUCAUG [U56A G88C]	-4.12
GGAUCUUCUCGAUCUAACAAAAAAGACAAAUCUGCCACAAAGCUUGAGAGCAUCUACGGAUGCAGAGGCGGCAGCCUUCGAUGGCGCGAUAGCGCCAACGUUGUCAACUAUGACACGCAAGUCGCGUGCUCCGUUGAAUGGAGUUUAUCAUG [U56A G81A C103G A121G A122U]	-1.56
GGAUCUUCUCGAUCUAACAAAAAAGACAAAUCUGCCACAAAGCUUGAGAGCAUCUACGGAUGCAGAGGCGGCAGCCUUCGGUGACGCGAUAGCGCCAACGUUCUCAACUAUGACACGCAAAACGCGGGCUCCGUUGAAUGGAGUUUAUCAUG [U56A G84A U127G]	-3.06
GGAUCUUCUCGAUCUAACAAAAAAGACAAAUCUGCCACAAAGCUUGAGAGCAUCUACGGAUGCAGAGGCGGCAGCCUUCGGUCGCGUGCUAGCGCCAACGUUCUCAAUUAUGACACGCAAAACGCGUGCUCCGUUGAAUGGAGCUUAUCAUG [U56A G83C C87U A89C C108U U144C]	≤ -4.2
GGAUCUUCUCGAUCUAACAAAAAAGACAAAUCUGCCACAAAGCUUGAGAGCAUCUACGGAUGCAGAGGCCGCAGCCUACGGAGGCGCGAUAGCGCCAACGUUCUCAACUAUGACACGCAAAACGCGUGCUACGUUGAAUGGAGUUUAUCAUG [U56A G70C U78A U82A C131A]	≤ -4.2
GGAUCUUCUCGAUCUAACAAAAAAGACAAAUCUGCCACAAAGCUUGAGAGCAUCUACGGAUGCAGAGGCGGCAGCCUUCGGUGUCGCGCUAGCGCCAACGUUCUCAACUAUGACACGCAAAACGCGUGCUCCGUUGAAUGGUGUUUAUCAUG [U56A G84U A89C A142U]	-3.24
GGAUCUUCUCGAUCUAACAAAAAAGACAAAUCUGCCACAAAGCUUGAGAGCAUCUACGGAUGCAGAGGCGGCAGCCUUCGCUGGCGCGAUAGCGCCAACGUUCUCAACUAUGACACGCACAACGCGUGCUCCGUUGAAUGAAGUUUAUCAUG [U56A G81C A120C G141A]	0.526
GGAUCUUCUCGAUCUAACAAAAAAGACAAAUCUGCCACAAAGCUUGAGAGCAUCUACGGAUGCAGAGGCGGCAGCCUUCGGUGGCACGAUAGCGCCAACGUUCUCAACUAUGACACGCAAAACGCGUGCUCCGUUGAAUGGAGUUUAUCAUG [U56A G86A]	-1.16
GGAUCUUCUCGAUCUAACAAAAAAGACAAAUCUGCCACAAAGCUUGAGAGCAUCUACGGAUGCAGAGGCGGCAGCCUUCUGUGUCGCGAUAGCGCCAACGUGCUCAACUAUGACACGCAAAACUCGUGCUCCGUUGAAUGGAGUUUAUCAUG [U56A G80U G84U U102G G124U]	≤ -4.2
GGAUCUUCUCGAUCUAACAAAAAAGACAAAUCUGCCACAAAGCUUGAGAGCAUCUACGGAUGCAGAGGCGGCAGCCUUCGGUUGCGCGAUAGGGCCAACGUUCUCAACUAUGACACGCAAAACGCGUGCUCCGUUGAAUGGAGUUUAUCAUG [U56A G83U C93G]	≤ -4.2
GGAUCUUCUCGAUCUAACAAAAAAGACAAAUCUGCCACAAAGCUUGAGAGCAUCUACGGAUGCAGAGGCGGCAGCCUUCUGUGGCGCGAUAGCGCCAAAGUUCUCAACUAUGACACGCAAACCGCGUGCUCCGUUGAAUGGAGUUUAUCAUG [U56A G80U C99A A122C]	-1.16
GGAUCUUCUCGAUCUAACAAAAAAGACAAAUCUGCCACAAAGCUUGAGAGCAUCUACGGAUGCAGAGGCGGCAGCCUUCGGUGACGCGACAGCGCCAACGUUCUCAACUAUGACACGCAAAACGAGUGCUCCGUUGAAUGGAGUUUAUCAUG [U56A G84A U90C C125A]	≤ -4.2
GGAUCUUCUCGAUCUAACAAAAAAGACAAAUCUGCCACAAAGCUUGAGAGCAUCUACGGAUGCAGAGGCGGCAGCCUUCGGUCGCGCGAUAGCGCCAACUUUCUCAACUAUGACACGCAAAACGCGUGCUCCGUUGAAUGGAGUUUAUCAUG [U56A G83C G100U]	≤ -4.2
